Experimental data published in patent US12116424 (WISCONSIN ALUMNI RESEARCH FOUNDATION, dated 2024).
Read-outs that look alike come from different tables or passages of the source. Bridges are numbered along the chain shown (N, C = ends). Where no end group is shown, it is not given here. [ ]: non-standard residue; d: D form.

B1: Sa AIP-IV (peptide)
peptide: YSTCYFIM
modifications: not fully specified; thiolactone ring Cys4-Met8 (Cys side chain to C-terminal carboxyl)
B2: Sa AIP-I (peptide)
peptide: YSTCDFIM
modifications: not fully specified; thiolactone ring Cys4-Met8 (Cys side chain to C-terminal carboxyl)
B3: 15-mer (peptide)
peptide: KVADSSMSKACFMFV
modifications: not fully specified; thiolactone ring Cys11-Val15 (Cys side chain to C-terminal carboxyl)
B4: 14-mer (peptide)
peptide: VADSSMSKACFMFV
modifications: not fully specified; thiolactone ring Cys10-Val14 (Cys side chain to C-terminal carboxyl)
B5: Se AIP-II (peptide)
peptide: NASKYNPCSNYL
modifications: not fully specified; thiolactone ring Cys8-Leu12 (Cys side chain to C-terminal carboxyl)
B6: 11-mer (peptide)
peptide: SSMSKACFMFV
modifications: not fully specified; thiolactone ring Cys7-Val11 (Cys side chain to C-terminal carboxyl)
B7: Se AIP-I (peptide)
peptide: DSVCASYF
modifications: not fully specified; thiolactone ring Cys4-Phe8 (Cys side chain to C-terminal carboxyl)
B8: Se AIP-I D1AS6A (peptide)
peptide: ASVCAAYF
modifications: not fully specified; thiolactone ring Cys4-Phe8 (Cys side chain to C-terminal carboxyl)
B9: 13-mer (peptide)
peptide: ADSSMSKACFMFV
modifications: not fully specified; thiolactone ring Cys9-Val13 (Cys side chain to C-terminal carboxyl)
B10: 10-mer (peptide)
peptide: SMSKACFMFV
modifications: not fully specified; thiolactone ring Cys6-Val10 (Cys side chain to C-terminal carboxyl)
B11: Se AIP-I D1AV3AS6A (peptide)
peptide: ASACAAYF
modifications: not fully specified; thiolactone ring Cys4-Phe8 (Cys side chain to C-terminal carboxyl)
B12: 12-mer (peptide)
peptide: DSSMSKACFMFV
modifications: not fully specified; thiolactone ring Cys8-Val12 (Cys side chain to C-terminal carboxyl)
B13: Sa AIP-II (peptide)
peptide: GVNACSSLF
modifications: not fully specified; thiolactone ring Cys5-Phe9 (Cys side chain to C-terminal carboxyl)
B14: 8-mer (peptide)
peptide: SKACFMFV
modifications: not fully specified; thiolactone ring Cys4-Val8 (Cys side chain to C-terminal carboxyl)
B15: 9-mer (peptide)
peptide: MSKACFMFV
modifications: not fully specified; thiolactone ring Cys5-Val9 (Cys side chain to C-terminal carboxyl)

Tests used:
Assay in all cases: cell-based or functional assay
L. monocytogenes AgrC [1] = molecular target: T1, L. monocytogenes AgrC (Listeria monocytogenes (EGD-e))
L. monocytogenes AgrC [2] = molecular target: T1, L. monocytogenes AgrC; remark: listed apart in the source
L. monocytogenes AgrC [3] = molecular target: T1, L. monocytogenes AgrC; remark: listed apart in the source

Binder	Max Activation (agr-GFP reporter, ΔagrD strain) (L. monocytogenes AgrC [1])	Max Inhibition (agr-GFP reporter, wild-type strain) (L. monocytogenes AgrC [1])	EC50 (agr-GFP reporter, ΔagrD strain) (L. monocytogenes AgrC [3])	Max Activation (agr-GFP reporter, ΔagrD strain) (L. monocytogenes AgrC [3])	Max Inhibition (agr-GFP reporter, wild-type strain) (L. monocytogenes AgrC [3])	further results
B1	9.81%	8.56%				
KA[dC]F[dM]FV (bridge 3-C; also: thiolactone: dCys3 side chain to C-terminal carboxyl) [7-mer C3dC/M5dM]						IC50 (agr-GFP reporter, wild-type strain) (L. monocytogenes AgrC [2]): 1290 nM; Max Activation Observed (agr-GFP reporter, ΔagrD strain) (L. monocytogenes AgrC [2]): 7.89%; Max Inhibition Observed (agr-GFP reporter, wild-type strain) (L. monocytogenes AgrC [2]): 88.9%
B2	12.2%	1.29%				
B3			22.2 nM	122%	0.23%	
B4			39.9 nM	105%	0%	
B5	8.45%	0%				
B6			14.3 nM	111%	3.9%	
NAAKYNPCASYL (bridge 8-C) [Se AIP-III]	8.73%	0%				
B7	8.65%	0%				
KACFMFV (bridge 3-C; also: thiolactone: Cys3 side chain to C-terminal carboxyl) [7-mer, K-A-(C-F-M-F-V)]			61.7 nM	64.6%	38.3%	IC50 (agr-GFP reporter, wild-type strain) (L. monocytogenes AgrC [3]): 866 nM
B8	12.4%	0%				
B9			29 nM	108%	0%	
B10			21.5 nM	110%	0%	
B11	12.1%	0.06%				
B12			43.4 nM	116%	0.26%	
KA[dC]FMFV (bridge 3-C; also: thiolactone: dCys3 side chain to C-terminal carboxyl) [7-mer C3dC]						IC50 (agr-GFP reporter, wild-type strain) (L. monocytogenes AgrC [2]): 3800 nM; Max Activation Observed (agr-GFP reporter, ΔagrD strain) (L. monocytogenes AgrC [2]): 7.08%; Max Inhibition Observed (agr-GFP reporter, wild-type strain) (L. monocytogenes AgrC [2]): 49.3%
INCAFLL (bridge 3-C; also: thiolactone: Cys3 side chain to C-terminal carboxyl) [Sa AIP-III D4A]	12.3%	5.87%				
B13	12%	0%				
KKCFMFV (bridge 3-C; also: thiolactone: Cys3 side chain to C-terminal carboxyl) [7-mer A2K]						EC50 (agr-GFP reporter, ΔagrD strain) (L. monocytogenes AgrC [2]): 185 nM; IC50 (agr-GFP reporter, wild-type strain) (L. monocytogenes AgrC [2]): 359 nM; Max Activation Observed (agr-GFP reporter, ΔagrD strain) (L. monocytogenes AgrC [2]): 64.8%; Max Inhibition Observed (agr-GFP reporter, wild-type strain) (L. monocytogenes AgrC [2]): 51.8%
B14			68.6 nM	71.5%	29.4%	IC50 (agr-GFP reporter, wild-type strain) (L. monocytogenes AgrC [3]): 842 nM
INCDFLL (bridge 3-C; also: thiolactone: Cys3 side chain to C-terminal carboxyl) [Sa AIP-III]	11.3%	0.64%				
B15			23.5 nM	93.6%	8.89%	IC50 (agr-GFP reporter, wild-type strain) (L. monocytogenes AgrC [3]): 416 nM
KACF[dM]FV (bridge 3-C; also: thiolactone: Cys3 side chain to C-terminal carboxyl) [7-mer M5dM]						EC50 (agr-GFP reporter, ΔagrD strain) (L. monocytogenes AgrC [2]): 8.29 nM; Max Activation Observed (agr-GFP reporter, ΔagrD strain) (L. monocytogenes AgrC [2]): 71.9%; Max Inhibition Observed (agr-GFP reporter, wild-type strain) (L. monocytogenes AgrC [2]): 18.5%
